Results on one substance are retold here after article PMC8956665, “Structural and molecular rationale for the diversification of resistance mediated by the Antibiotic_NAT family” (Communications Biology, 2022).

The assay deals with meta-AAC0038^H168A (not stated (soil metagenome)). In words: crystal structure.

The stoichiometry N is the number of molecules, sites or subunits per partner or assembly. On to meta-AAC0038^H168A (enzyme), for which the stoichiometry N stood at 2.
